Experimental data from the RNAGym collection of RNA variant scans (doi:10.1073/pnas.2313332121).

B1: TPR t1 (parent)
chain: GACCAAUCUGCCCUCAGAGCUCGAGAACAUCUUCGGAUGCAGAGGAGGCAGGCUUCGGUGGCGCGAUAGCGCCAACGUCCUCAACCUCCAAUGCAUCCCACCACAUGAUGAUGCCUGAAGAGCCUUGGUUUUUUG

Variants of: B1
Assay: polymerase ribozyme fitness, log enrichment relative to wild type (log ratio); higher = more active; in vitro selection for triplet polymerase activity
Summary of the method: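 Mutant libraries were PCR-built and transcribed for each subunit of a heterodimeric triplet polymerase ribozyme and selected for one round in triplicate at −7 °C, frozen, before gel excision of extended constructs and streptavidin-bead capture. Input and output libraries were Illumina-sequenced, keeping genotypes with ≥10 input reads and ≥1 read per output. Fitness is a logarithmic ratio of genotype to wild-type enrichment, in base 2, using inverse-variance-weighted replicate averages.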

Row | Variant | polymerase ribozyme fitness (log ratio)
1 | GACCAAUCUGCCCUCAGAGCUCGAGAACAUCUUCGGAUGCAGAGGAGGCAGGCUUUGGUGGCGCGAUAGCGCCAACGUCCUCAACCUCCAAUGCAUCCCAGCACAUGAUGAUGCCUGAAGAGCCUUGGUUUUUUG | -2.07
2 | GACCAAUCUGCCCUCAGAGCUCGAGAACAUCUUCGGAUGCAGAGGAGGCAGGCUUUGGUGGCGCGAUAGCGCCAACGUCCUCAACCUCCAAUGCAUCCCACCACAUGAUGAUGCCUGAAGAGCUUUGGUUUUGUG | 1.14
3 | GACCAAUCUGCCCUCAGAGCUCGAGAACAUCUUCGGAUGCAGAGGAGGCAGGCUUUGGUGGCGCGAUAGCGCCAACGUCCUCAACCUCCGAUCCAUCCCACCACAUGAUGAUGCCUGAAGAGCCUUGGUUUUUUG | -1.38
4 | GACCAAUCUGCCCUCAGAGCUCGAGAACAUCUUCGGAUGCAGAGGAGGCAGGCUUUGGUGGCGCGAUAGCGCUAACGUCCUCAACCUCCAAUGCAUCCCACCACAUGAUGAUGCCUGAAGAGCCUUGGUUUUUUG | -0.755
5 | GACCAAUCUGCCCUCAGAGCUCGAGAACAUCUUCGGAUGCAGAGGAGGCAGGCUUUGGUGGCGCGAUAGCGCCAACGUCCUCAACCUCCCAUGCAUCCCACCACAUGAUAGUGCCUGAAGAGCCUUGGUUUAUUG | -0.678
6 | GACCAAUCUGCCCUCAGAGCUCGAGAACAUCUUCGGAUGCAGAGGAGGCAGGCUUUGGUGGCGCGAUAGCGCCAACGUCCUCAACCUCCAAUGCAUCCCACCACAUGAUGAUGCGUGAAGAGCCUUGGUUUUUUG | -2.56
7 | GACCAAUCUGCCCUCAGAGCUCGAGAACAUCUUCGGAUGCAGAGGAGGCAGGCUUUGGUGGCGCGAUAGCGCCAACGUCCUUAACAUCCAAUGCAUCCCACCACAUGAUGAGGCCUGAAGAGCCUUGGCUUUUUG | -1.4
8 | GACCAAUCUGCCCUCAGAGCUCGAGAACAUCUUCGGAUGCAGAGGAGGCAGGCUUUGGUGGCGCGAUAGCGCCAACGUCCUCAACUUCCAAUGCAUCCCACCACAUGAUGAUGCCUGAAGAGCUUUGGUUAUUUG | 1.32
9 | GACCAAUCUGCCCUCAGAGCUCGAGAACAUCUUCGGAUGCAGAGGAGGCAGGCUUGGGUGGCGCGAUAGCGCCAACGUCCUCAACCACCAAUGCAUCCCACCACAUGAUGAUGCCUGAAAAGCCUUGGUUUUUUG | -0.872
10 | GACCAAUCUGCCCUCAGAGCUCGAGAACAUCUUCGGAUGCAGAGGAGGCAGGCUUUGGUGGCGCGAUAGCGCGAACGUCCUCAACCUCCAAUGCAACCCACCACAAGAUGAUGCCUGAAGAGCCUUGGUUUUUUG | -3.7
11 | GACCAAUCUGCCCUCAGAGCUCGAGAACAUCUUCGGAUGCAGAGGAGGCAGGCUUUGGUGGUGCGAUAGCGCCAACGUCCUCAACCUCCAAUGCAUCCCAGCACAUGAUGAUGCCUGAAGAGCCUUGGUUUUAUG | -3.24
12 | GACCAAUCUGCCCUCAGAGCUCGAGAACAUCUUCGGAUGCAGAGGAGGCAGGCUUUGGUGGCGCGAUAGCGCAAACGUCCUCAACCUCCAAUGCAUCCCUCCACAUGAUGAUGCCUGAAGAGCCUUGGUUUUUUG | -1.12
13 | GACCAAUCUGCCCUCAGAGCUCGAGAACAUCUUCGGAUGCAGAGGAGGCAGGCUUUGGUGGCGCGAUAGCGCCAUCGUCCUCAACUUCCAAUGCAUCCCACCACAUGAUGAUGCCUGAAGAGCCUUGGUUUUUUG | -0.18
14 | GACCAAUCUGCCCUCAGAGCUCGAGAACAUCUUCGGAUGCAGAGGAGGCAGGCUUUGGUGGCGCGAUAGAGCCAACGUCCUCAACCUCCAAUGCAUCCCACCACAUGAUGAUGCAUGAAGAACCUUGGUUUUUUG | -3.13
15 | GACCAAUCUGCCCUCAGAGCUCGAGAACAUCUUCGGAUGCAGAGGAGGCAGGCUUUGGUGGCGCGAUAGCGCCAACGUCCUCAACCUCCGAUGCAUCCCACCACAUGAUGAUGCCUGAAGAGCCAUGGUUUUUUG | -0.318
16 | GACCAAUCUGCCCUCAGAGCUCGAGAACAUCUUCGGAUGCAGAGGAGGCAGGCUUUGGUGGCGUGAUAGCGCCAACGUCCUCAACCUCCAAUGCAUCCCACCACAUGAUGAUGCCUGAAGAGCCUUGGUUUUUUG | -1.54
17 | GACCAAUCUGCCCUCAGAGCUCGAGAACAUCUUCGGAUGCAGAGGAGGCAGGCUUGGGUGGCGCGAUAGCGCCAACGUCCUCAACCUCCAAUGCAGCCCACCACAUGAUGAUGCCUGAAGAGCCAUGGUUUUUUG | -1.29
18 | GACCAAUCUGCCCUCAGAGCUCGAGAACAUCUUCGGAUGCAGAGGAGGCAGGCUUUGGUGGCGCGAUAGCGCCAACGUCCUCGACCUCCAAUGCAUCCCACCACAUGAUGAUGCCUGAAGAGCCUUGGUUUUUUG | -0.676
19 | GACCAAUCUGCCCUCAGAGCUCGAGAACAUCUUCGGAUGCAGAGGAGGCAGGCUUUGGUGGCGCGAUAGCGCCAACGUCCUCAACCUCCAAUGCAUCCCACCAUAUGAUGAUGCCUGAAGAGCCUUGGUUUUUUG | 0.166
20 | GACCAAUCUGCCCUCAGAGCUCGAGAACAUCUUCGGAUGCAGAGGAGGCAGGCUUUGGUGGCGCGAUAGUGCCAACGUCCUCAACCUCCAAUGCAACCCACCACAUGAUGAUGCCUGAAGAGCCUUGGUUUUUUG | -2.06
21 | GACCAAUCUGCCCUCAGAGCUCGAGAACAUCUUCGGAUGCAGAGGAGGCAGGCUUUGGUGGGGCGAUAGCGCCAACGUCCUCAACCUCCAAUGCAUCCCACCACAUGAUGAGGCCUGAAGAGCCUUGGUUUUUUG | -5.4

Row | Variant | polymerase ribozyme fitness (log ratio)
22 | GACCAAUCUGCCCUCAGAGCUCGAGAACAUCUUCGGAUGCAGAGGAGGCAGGCUUUGGUGGCGCGAUAGCGCCAACGUCCUAAACCUCCAAUGCAUCCCACCACAUGAUCAUGCCUGAAGAGCCUUGGUUUUUUG | -4.8
23 | GACCAAUCUGCCCUCAGAGCUCGAGAACAUCUUCGGAUGCAGAGGAGGCAGGCUUUGGUGGCGCGAUAGCGCCAACGUCCUCAACCUCCAAUGCAUCCCACCACAUGAUGUUGCCUGAAGAGCCUUGGUUUUUUG | -1.9
24 | GACCAAUCUGCCCUCAGAGCUCGAGAACAUCUUCGGAUGCAGAGGAGGCAGGCUUGGGUGGCGCGAUAGCGCCAACGUCCUCAACCUCCAAUGCAACCCACCACAUGAUGAUGCCUGAAGAGCCUUGGUUUUUUG | -0.238
25 | GACCAAUCUGCCCUCAGAGCUCGAGAACAUCUUCGGAUGCAGAGGAGGCAGGCUUUGGUGGCGCGAUAGCGCCAACGUCCUCAACCUCCAAUGCAUCCCACCACAUGAUGAUGACUGAAGAGCCUUGAUUUUGUG | -4.81
26 | GACCAAUCUGCCCUCAGAGCUCGAGAACAUCUUCGGAUGCAGAGGAGGCAGGCUUGGGUGGCGCGAUAGCGCCAACGUCCUCAACCUCCAAUGCAUCCCACCACAUGAUGAUGCCUGAAGAGCCAUGGUUUUUUG | -1.54
27 | GACCAAUCUGCCCUCAGAGCUCGAGAACAUCUUCGGAUGCAGAGGAGGCAGGCUUUGGUGGCGCGAUAGCGCCAACGUCCUCAACCUCCAAUGCAUCCCACCUCAUGAUGAUGCCUGAAGAGCCUUGGUUUUUUG | -4.81
28 | GACCAAUCUGCCCUCAGAGCUCGAGAACAUCUUCGGAUGCAGAGGAGGCAGGCUUUGGUGGCGCGAUAGCGCCAACGUCAUCAACCUCCAAUGCAUCCCACCACAUGAUGAUGUCUGAAGAGCCUUGGUUUUUUG | -4.51
29 | GACCAAUCUGCCCUCAGAGCUCGAGAACAUCUUCGGAUGCAGAGGAGGCAGGCUUUGGUGGCGCGAUAGCGCCAACGUCCUCAACCUCCGAUGCAUCCCACCACAUGAUGAUGCCUGAAGAGCCUUGGUUUAUUG | 0.308
30 | GACCAAUCUGCCCUCAGAGCUCGAGAACAUCUUCGGAUGCAGAGGAGGCAGGCUUGGGUGGCGCGAUAGCGCCAACGUCCUCAACCUCCAAUGCAUCCCACCACAUGAUGAUGCCUGAAGAGCCUUGGCUUUUUG | -0.877
31 | GACCAAUCUGCCCUCAGAGCUCGAGAACAUCUUCGGAUGCAGAGGAGGCAGGCUUUGGUGGCGCGAUAGCGACAACGUCCUCAACCUCCAAUGCAUCCCACCACAUGAUGAUGCCUGAAGAGCCUUGGUUUUUUG | -0.0735
32 | GACCAAUCUGCCCUCAGAGCUCGAGAACAUCUUCGGAUGCAGAGGAGGCAGGCUUUGGUGGCGCGAUAGCGUCAACGUCCUCAACCUCCAAUGCAUCCCACCACAUGAUGAUGCCUGAAGAGCCUUGGUUUUUUG | -0.11
33 | GACCAAUCUGCCCUCAGAGCUCGAGAACAUCUUCGGAUGCAGAGGAGGCAGGCUUUGGUGGCGCGAUAGCGCCAACGUCUUCAACCUCCAAUGCAUCCCAUCACAUGAUGAUGCCUGAAGCGCCUUGGUUUUUUG | 0.686
34 | GACCAAUCUGCCCUCAGAGCUCGAGAACAUCUUCGGAUGCAGAGGAGGCAGGCUUUGGUGGCGCGAUAGCGCCAACGUCCUCAACCUUCAAUGCAUCCCACCACAUGAUGAUGCCUGAAGAGCCUUGGUUUUUUG | -0.153
35 | GACCAAUCUGCCCUCAGAGCUCGAGAACAUCUUCGGAUGCAGAGGAGGCAGGCUUUGGUGGCGCGAUAGCGCCAACGUCCUGAACCUCCAAUGCAUCCCACCACAUGAUGAUGCCUGAAGAGCCUUGGUCUUUUG | -0.672
36 | GACCAAUCUGCCCUCAGAGCUCGAGAACAUCUUCGGAUGCAGAGGAGGCAGGCUUGGGUGGCGCGAUAGCGCCAACGUCCUCAACCCCCAAUGCAUCCCACCACAUGAUGAUGCCUGAAGAGCCUUGGUUUUUUG | -0.336
37 | GACCAAUCUGCCCUCAGAGCUCGAGAACAUCUUCGGAUGCAGAGGAGGCAGGCUUUGGUGGCGCGAUAGCGCCAACGUCCUCAACCUUCAAUGCAUCCCACCACAUGAUGAUGACUGAAAAGCCUUGGUUUUUUG | -1.81
38 | GACCAAUCUGCCCUCAGAGCUCGAGAACAUCUUCGGAUGCAGAGGAGGCAGGCUUUGGUGGCGCGAUAGCGCCAACGUCCUCAACCUCAAAUGCAUCCCACCACAUGAUGAUGCCUGAAGAGCCUUGGUUUUUUG | -1.04
39 | GACCAAUCUGCCCUCAGAGCUCGAGAACAUCUUCGGAUGCAGAGGAGGCAGGCUUUGGUGGCGCGAUAGCGCCAACGUCCUCAACUUCCAAUGCAUCCCACCACAUGAUGAUGCCUAAAGAGCCUUGGUUUUUUG | -1.37
40 | GACCAAUCUGCCCUCAGAGCUCGAGAACAUCUUCGGAUGCAGAGGAGGCAGGCUUUGGUGGCGCGAUAGCGCCAACGUCUUCAACCUCCAAUGCAUCCCACCACAUGAUGAUGCCUGAAGAGCCUUGGUUUUUUG | -1.17
41 | GACCAAUCUGCCCUCAGAGCUCGAGAACAUCUUCGGAUGCAGAGGAGGCAGGCUUUGGUGGCGCGAUAGCGCCAACGUCCUCAACCUCCAAUGCAUCCCACCACAUGAUGAUGCAUGAAGAGCCUUGGUUUUCUG | 1.27
42 | GACCAAUCUGCCCUCAGAGCUCGAGAACAUCUUCGGAUGCAGAGGAGGCAGGCUUUGGUGGCGCGAUAGCGCCAAAGUCCUCAACCUCCAAUGCAUCCCACCACAUGAUGAUGCCUGAAGAGCCUUGGUUUUUUG | -2.9
